From patent US20130071428A1

How the values were obtained:
[1] = target: … (18-mer) with Ahx-Lys(biotin) (Clostridium tetani); assay: Tettox ELISA, biotinylated peptide on streptavidin plate
[2] = target: J Z SKFIGITELKKLESKINKVF (Clostridium tetani)
[3] = target: J Z Z F I G I T E L K K L E S K I N K V F (Clostridium tetani)
[4] = target: J Z F I G I T E L K K L E S K I N K V F (Clostridium tetani)
[5] = target: J Z Z SKFIGITELKKLESKINKVF (Clostridium tetani)
[6] = target: … (18-mer) with Ahx-Lys(biotin) (Clostridium tetani)
[7] = target: b1, neg contr. (Clostridium tetani); assay: Tettox ELISA, negative control peptide; antibody source not named in Table 4

Substance: TetaQuin® (antibody)
- OD [1]: 2.3 OD
- OD (column without a head) [2]: 0.28 OD
- OD (column without a head) [3]: 0.22 OD
- OD (column without a head) [4]: 0.17 OD
- OD (column without a head) [5]: 0.47 OD
- ELISA OD (Ala scan of …, # 4): 0.65 OD
- ELISA OD (Ala scan of …, # 17): 1.3 OD
- ELISA OD (Ala scan of …, # 18): 1.24 OD
- ELISA OD (Ala scan of …, # 9): 0.62 OD
- ELISA OD (Ala scan of …, # 12): 0.85 OD
- ELISA OD (Ala scan of …, # 14): 1.1 OD
- ELISA OD (Ala scan of …, # 13): 1.27 OD
- ELISA OD [6]: 1.26 OD
- ELISA OD (Ala scan of …, # 5): 0.3 OD
- ELISA OD (Ala scan of …, # 19): 1.26 OD
- ELISA OD (Ala scan of …, # 7): 1.24 OD
- ELISA OD (Ala scan of …, # 3): 1.04 OD
- ELISA OD (Ala scan of …, # 16): 1.37 OD
- ELISA OD (Ala scan of …, # 6): 0.38 OD
- ELISA OD (Ala scan of …, # 8): 0.9 OD
- ELISA OD (Ala scan of …, # 10): 1.06 OD
- ELISA OD (Ala scan of …, # 2): 1.12 OD
- ELISA OD (Ala scan of …, # 15): 0.88 OD
- ELISA OD (Ala scan of …, # 11): 0.7 OD
- OD (column without a head) [7]: 0.12 OD
